From US5726154A, “Stabilization and oral delivery of calcitonin” (University of Utah Research Foundation, priority 1996, dated 1998)

Tests used:
[1] = in water at room temperature; cited from earlier work
[2] = 5 mg/ml hCT in 0.0001%-1.0% acetic acid; could not be duplicated by the applicant; cited from earlier work
[3] = Reversed-phase HPLC analysis of unaggregated hCT in formulations; assay type: physicochemical; conditions: 0.01% acetic acid containing 1.0% SDS; 8 months of storage at ambient temperature
Description: Samples (1-2 ml) containing 0.2-10 mg/ml of hCT in aqueous formulations were prepared and then maintained in 4 ml borosilicate vials at ambient temperature or at 4° C. The samples were checked periodically for the presence of a precipitate, a gel, or turbidity, which are indicative of fibrillation. In cases of formulations in which the hCT was very unstable, changes in turbidity could be followed over time by spectrophotometry at 340 nm. T. Arvinte et al., The structure and mechanism of formation of human calcitonin fibrils, 268 J. Biol. Chem. 6415-22 (1993), hereby incorporated by reference. In some cases, the concentration of unaggregated hCT was determined using reversed-phase HPLC (Waters modular system with Waters model 745 integrator, Bedford, Mass.) on a Vydac C4 column (4.6 mm×25 cm) equilibrated at a flow rate of 1 ml/min with 0.1% (v/v) trifluoroacetic acid containing 30% (v/v) acetonitrile. Five minutes after injection of a 100 μl sample, a linear gradient of 0.67% acetonitrile/min was applied. Absorbance (at 220 nm) of the eluent was recorded and processed to quantify the amount of hCT injected.
HPLC analysis of hCT in 0.01% acetic acid or in 0.01% acetic acid containing 1.0% SDS was performed to determine the state and concentration of unaggregated hCT in such formulations. […]

[4] = Stability of hCT upon storage in liquid formulations (precipitate, gel or turbidity indicative of fibrillation); assay type: physicochemical; conditions: bile salts (0.5-1.0%: taurocholate, deoxycholate, glycocholate), neutral or acidic pH
Description: As used herein, "stable," "stabilizing," and similar terms refer to inhibiting the precipitation, fibrillation, or gelation of human calcitonin molecules upon storage in a liquid medium at a temperature of about 4°-25° C. Human calcitonin is considered "stable" or "stabilized" in a selected liquid medium when no precipitation, fibrillation, or gellation is detected upon storage at a temperature of about 4°-25° C. for a period of at least about 6 months.
Since hCT is highly unstable in aqueous solutions of neutral or basic pH, acidic formulations were investigated to determine whether increased stability could be obtained. […]
Samples (1-2 ml) containing 0.2-10 mg/ml of hCT in aqueous formulations were prepared and then maintained in 4 ml borosilicate vials at ambient temperature or at 4° C. […] In some cases, the concentration of unaggregated hCT was determined using reversed-phase HPLC (Waters modular system with Waters model 745 integrator, Bedford, Mass.) on a Vydac C4 column (4.6 mm×25 cm) equilibrated at a flow rate of 1 ml/min with 0.1% (v/v) trifluoroacetic acid containing 30% (v/v) acetonitrile. […] Absorbance (at 220 nm) of the eluent was recorded and processed to quantify the amount of hCT injected. […]

Compound | Critical micelle concentration (CMC) [1] [%] | Period of stable formulation reported by EP 490549 [2] [months] | HPLC profiles and UV spectra after storage [3] | Time to gel formation [4] [h]
CCCCCCCCCCCCOS(=O)(=O)[O-].[Na+] [SDS, sodium dodecyl sulfate] | 0.24 | – | – | –
Human calcitonin [hCT] | – | 8 | not altered | ≤ 1
